Numbering of substitutions follows the chain as printed. Numbers in names are those of the source.
Experiments:
[1] = substrate: O=[N+]([O-])c1ccc(OC2O[C@H](CO)[C@@H](O[C@H]3O[C@H](CO)[C@@H](O[C@H]4O[C@H](CO)[C@@H](O[C@H]5O[C@H](CO)[C@@H](O[C@H]6O[C@H](CO)[C@@H](O)[C@H](O)[C@H]6O)[C@H](O)[C@H]5O)[C@H](O)[C@H]4O)[C@H](O)[C@H]3O)[C@H](O)[C@H]2O)cc1; assay: Enzymatic activity with 4NP-DP5 as substrate, Michaelis-Menten kinetics (WT); format: biochemical, Bacillus licheniformis; conditions: other: substrate 4NP-DP5 0-1 mM, 35° C., 50 mM MOPS, 50 mM NaCl, 2 mM CaCl2, pH 7.15, WT α-amylase
Procedure: (§1) The enzymatic activity of B. licheniformis α-amylase WT and mutants was measured using 4-nitrophenyl-maltopentaoside (4NP-DP5) as a substrate, 4 nitrophenol and maltopentaose are formed, this reaction can be followed by measuring the change in OD 405 The assay was performed at 35° C. in 50 mM MOPS, 50 mM NaCl, 2 mM CaCl2 (PH 7.15) and 0-1 mM 4NP-DP5.
(§2) Initial rates were measured and E-nitrophenol was taken as 10,000 l/M/cm.

[2] = substrate: O=[N+]([O-])c1ccc(OC2O[C@H](CO)[C@@H](O[C@H]3O[C@H](CO)[C@@H](O[C@H]4O[C@H](CO)[C@@H](O[C@H]5O[C@H](CO)[C@@H](O[C@H]6O[C@H](CO)[C@@H](O)[C@H](O)[C@H]6O)[C@H](O)[C@H]5O)[C@H](O)[C@H]4O)[C@H](O)[C@H]3O)[C@H](O)[C@H]2O)cc1; assay: Enzymatic activity with 4NP-DP5 as substrate, Michaelis-Menten kinetics (mutant 2D5); format: biochemical, Bacillus licheniformis; conditions: other: substrate 4NP-DP5 0-1 mM, 35° C., 50 mM MOPS, 50 mM NaCl, 2 mM CaCl2, pH 7.15, 2D5 α-amylase
Procedure: 2D5 contained the D7 mutation and in addition threonine 149 was replaced by isoleucine (2D5=H133Y, T149I).
as §1, §2

B1: Bacillus licheniformis α-amylase, WT (wild type, B. licheniformis T5; SEQ ID NO: 3) (Bacillus licheniformis) (protein)
chain: ANLNGTLMQYFEWYMPNDGQHWKRLQNDSAYLAEHGITAVWIPPAYKGTSQADVGYGAYDLYDLGEFHQKGTVRTKYGTKGELQSAIKSLHSRDINVYGDVVINHKGGADATEDVTAVEVDPADRNRVISGEHRIKAWTHFHFPGRGSTYSDFKWHWYHFDGTDWDESRKLNRIYKFQGKAWDWEVSNENGNYDYLMYADIDYDHPDVAAEIKRWGTWYANELQLDGFRLDAVKHIKFSFLRDWVNHVREKTGKEMFTVAEYWQNDLGALENYLNKTNFNHSVFDVPLHYQFHAASTQGGGYDMRKLLNSTVVSKHPLKAVTFVDNHDTQPGQSLESTVQTWFKPLAYAFILTRESGYPQVFYGDMYGTKGDSQREIPALKHKIEPILKARKQYAYGAQHDYFDHHDIVGWTREGDSSVANSGLAALITDGPGGAKRMYVGRQNAGETWHDITGNRSEPVVINSEGWGEFHVNGGSVSIYVQR
notes: made in house; host or cells: E. coli WK6
Question: Which Km [1] does the source give for B1 here?
Answer: The Km was 112 µM.

Question: And the Vmax [1]?
Answer: The Vmax was 66.7 ± 0.9 µmol/min/mg.

B2: Bacillus licheniformis α-amylase mutant 2D5 (H133Y, T149I) (Bacillus licheniformis; H162Y/T178I) (protein)
chain: B1 chain with H133Y, T149I
notes: as for B1
Question: Which Km [2] does the source give for B2 here?
Answer: Its Km is 119 µM.

Question: What about the Vmax [2] of the same protein?
Answer: Its Vmax is 66.3 ± 0.7 µmol/min/mg.
